In patent US20210113649A1 (UNIVERSITY OF FLORIDA RESEARCH FOUNDATION, published 2021):

B1: SREBP2 mature form, endogenous (other, human, UniProt Q12772 1-484, looked up)
chain: MDDSGELGGLETMETLTELGDELTLGDIDEMLQFVSNQVGEFPDLFSEQLCSSFPGSGGSGSSSGSSGSSSSSSNGRGSSSGAVDPSVQRSFTQVTLPSFSPSAASPQAPTLQVKVSPTSVPTTPRATPILQPRPQPQPQPQTQLQQQTVMITPTFSTTPQTRIIQQPLIYQNAATSFQVLQPQVQSLVTSSQVQPVTIQQQVQTVQAQRVLTQTANGTLQTLAPATVQTVAAPQVQQVPVLVQPQIIKTDSLVLTTLKTDGSPVMAAVQNPALTALTTPIQTAALQVPTLVGSSGTILTTMPVMMGQEKVPIKQVPGGVKQLEPPKEGERRTTHNIIEKRYRSSINDKIIELKDLVMGTDAKMHKSGVLRKAIDYIKYLQQVNHKLRQENMVLKLANQKNKLLKGIDLGSLVDNEVDLKIEDFNQNVLLMSPPASDSGSQAGFSPYSIDSEPGSPLLDDAKVKDEPDSPPVALGMVDRSRILL
notes: domain: mature form (N-terminal domain released by cleavage); also called mature SREBP2
B2: FLAG-SREBP2 (mature) (other, UniProt Q12772 1-481, looked up)
chain: MDDSGELGGLETMETLTELGDELTLGDIDEMLQFVSNQVGEFPDLFSEQLCSSFPGSGGSGSSSGSSGSSSSSSNGRGSSSGAVDPSVQRSFTQVTLPSFSPSAASPQAPTLQVKVSPTSVPTTPRATPILQPRPQPQPQPQTQLQQQTVMITPTFSTTPQTRIIQQPLIYQNAATSFQVLQPQVQSLVTSSQVQPVTIQQQVQTVQAQRVLTQTANGTLQTLAPATVQTVAAPQVQQVPVLVQPQIIKTDSLVLTTLKTDGSPVMAAVQNPALTALTTPIQTAALQVPTLVGSSGTILTTMPVMMGQEKVPIKQVPGGVKQLEPPKEGERRTTHNIIEKRYRSSINDKIIELKDLVMGTDAKMHKSGVLRKAIDYIKYLQQVNHKLRQENMVLKLANQKNKLLKGIDLGSLVDNEVDLKIEDFNQNVLLMSPPASDSGSQAGFSPYSIDSEPGSPLLDDAKVKDEPDSPPVALGMVDRSR
notes: domain: mature form; also called mature SREBP2 (Plasmid #26807); not shown: FLAG tag

Tests used:
[1] = target: T1, DAXX (death domain-associated protein), endogenous (human, UniProt Q9UER7 1-740); experiment: IP of MDA-MB-231 or PC3 cell extracts with an anti-DAXX mAb, immunoblot for SREBP2 (M, mature)
T1 construct: Endogenous protein pulled down with an anti-DAXX mAb or co-precipitated with FLAG-SREBP2; also called endogenous DAXX
T1 sequence (Q9UER7 whole entry, the tested form may be a part): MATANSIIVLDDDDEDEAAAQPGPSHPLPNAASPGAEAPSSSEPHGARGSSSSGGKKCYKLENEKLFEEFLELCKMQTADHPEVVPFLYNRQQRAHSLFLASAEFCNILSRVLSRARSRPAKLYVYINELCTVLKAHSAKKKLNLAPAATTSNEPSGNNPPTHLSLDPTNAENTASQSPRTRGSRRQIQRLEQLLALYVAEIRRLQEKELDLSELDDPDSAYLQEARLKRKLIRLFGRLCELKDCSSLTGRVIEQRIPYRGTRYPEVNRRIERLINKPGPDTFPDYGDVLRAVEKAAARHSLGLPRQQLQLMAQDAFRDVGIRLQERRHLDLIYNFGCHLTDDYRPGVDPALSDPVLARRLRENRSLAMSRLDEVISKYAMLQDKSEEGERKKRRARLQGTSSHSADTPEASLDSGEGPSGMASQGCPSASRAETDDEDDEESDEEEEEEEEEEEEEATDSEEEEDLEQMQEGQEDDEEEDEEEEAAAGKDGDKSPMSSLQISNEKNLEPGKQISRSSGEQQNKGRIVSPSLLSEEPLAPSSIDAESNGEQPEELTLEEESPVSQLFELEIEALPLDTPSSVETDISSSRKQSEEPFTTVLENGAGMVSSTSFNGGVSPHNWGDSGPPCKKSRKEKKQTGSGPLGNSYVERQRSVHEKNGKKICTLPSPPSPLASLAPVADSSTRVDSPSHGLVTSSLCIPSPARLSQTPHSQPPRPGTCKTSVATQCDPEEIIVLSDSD
Source text: FIGS. 2A to 2E show DAXX binds to SREBP2. […] MDA-MB-231 or PC3 cell extracts were subjected to IP with a control (IgG) or an anti-DAXX monoclonal antibody. The immunoprecipitated SREBP2 was detected. P, precursor; M, mature SREBP2. FIGS. 2B, 2C, and 2D show there are two independent binding sites in DAXX for mature SREBP2. […] The cell lysates were subjected to FLAG IP. […] HC: IgG heavy chain. *: non-specific band. FIG. 2E is a schematic drawing of DAXX-SREBP2 interactions. The two independent SREBP2-binding sites are depicted. Also shown is the sequence of aa 327-335 within the DAXX HBD critical for the DAXX-SREBP2 interactions. SIM: SUMO-interacting motif; DHB: DAXX helical bundle; HBD: histone-binding domain; PEST: proline, glutamic acid, serine, and threonine-rich sequence. Numbers refer to aa residue positions in the DAXX protein. Note that the irrelevant lanes in the same blots (between the input and IP samples in the PC3 blot in panel A, between lanes 4 and 5, and lanes 12 and 13 in panel B, and between lanes 1 and 2 in panel D) are left out.
Immunoprecipitation (IP) of total cell extracts with anti-DAXX antibody evidenced co-precipitation of two SREBP2 proteins (FIG. 2A) that correspond to the precursor (P) and the mature (M) forms of SREBP2. […]

GFP-DAXX S668A/S671A = target: T2, GFP-DAXX S668A/S671A (human, UniProt Q9UER7 1-740); experiment: anti-FLAG IP of 293T cells cotransfected with GFP-DAXX constructs and FLAG-SREBP2 (FIG. 6A)
T2 construct: also called S668A/S671A mutant; not shown: GFP from the pEGFP-C2 vector
T2 sequence (Q9UER7 whole entry S668A/S671A): as the sequence (Q9UER7 whole entry, the tested form may be a part) above, with S668A, S671A counted along it
Source text: (§1) FIGS. 6A to 6H show mutation of DAXX phosphorylation sites disrupts DAXX-SREBP2 interaction, impairs lipogenesis and tumor growth. […] The GFP-wt DAXX was transfected alone in the absence of FLAG-SREBP2 as a control (lane 7). The lysates of transfected cells were subjected to IP with an anti-FLAG antibody, Both DAXX and FLAG-SREBP2 were detected in immunoprecipitates and input lysates. […] The precipitated DNAs were subjected to qPCR with primers specific to promoter regions of the indicated genes. qPCRs for the 3′ UTR of the FASN and ACACA genes serve as negative control. […] ATRX qRT-PCR serves as a control for genes not regulated by SREBPs. […] Cells were serum-starved for 24 h. DMSO or a mTOR inhibitor (0.1 μM final concentration) was added for 5 h before cell lysis. […] RNAs were isolated from cells cultured in serum-free DMEM for 24 h as in FIG. 6D.

GFP-DAXX S495A = target: T3, GFP-DAXX S495A (human, UniProt Q9UER7 1-740); experiment: as above
T3 construct: also called S495A mutant; not shown: GFP from the pEGFP-C2 vector
T3 sequence (Q9UER7 whole entry S495A): as the sequence (Q9UER7 whole entry, the tested form may be a part) above, with S495A counted along it
Source text: as §1

GFP-DAXX S690A = target: T4, GFP-DAXX S690A (human, UniProt Q9UER7 1-740); experiment: as above
T4 construct: also called S690A mutant; not shown: GFP from the pEGFP-C2 vector
T4 sequence (Q9UER7 whole entry S690A): as the sequence (Q9UER7 whole entry, the tested form may be a part) above, with S690A counted along it
Source text: as §1

GFP-DAXX S671A = target: T5, GFP-DAXX S671A (human, UniProt Q9UER7 1-740); experiment: as above
T5 construct: also called S671A mutant; not shown: GFP from the pEGFP-C2 vector
T5 sequence (Q9UER7 whole entry S671A): as the sequence (Q9UER7 whole entry, the tested form may be a part) above, with S671A counted along it
Source text: as §1

Row | Binder | binding result [1] | binding result (GFP-DAXX S668A/S671A) | binding result (GFP-DAXX S495A) | binding result (GFP-DAXX S690A) | binding result (GFP-DAXX S671A)
1 | B1 | binds | – | – | – | –
2 | B2 | – | no binding | no binding | no binding | no binding
